Source: patent publication US6919086B1, “Graminae pollen allergen mutants for specific immunotherapy, and production and use of the same” (Merck Patent Gesellschaft mit, priority 1997, dated 2005)
Entries after “also recorded” stand apart in the source; their conditions may differ. Where two headings read alike, the source gives them in different places.

Assays:
[1] = system: Phl p 5b-reactive T cell lines (TCLs) from allergic patients; experiment: Proliferative reaction of Phl p 5b-reactive oligoclonal T cell lines ([3H]-thymidine incorporation); assay type: cell-based, human; conditions: secondary activator 0.3 μM
Procedure: In the second phase, oligoclonal T cell lines, which have been established by repeated stimulation with the relevant allergens, are employed for the testing. Once again, only those modified recombinant allergens which at least give rise to a stimulation index (SI) of 50% of the SI of the wild type are taken into consideration.
(§1) 40 ml of heparinized blood were obtained from each patient. Peripheral mononuclear cells (PBMC) were then isolated from this blood sample by means of the customary method using density gradient centrifugation. Analogous cell isolations were carried out at a later stage when it was necessary to obtain irradiated autologous antigen-presenting cells (APC) for characterizing the TCL and TCC further. After the PBMC had been counted, TCL which reacted to group 5 allergens in vitro were established as follows and as has already been described in detail elsewhere (Lit. 1): in each well of 24-well microculture plates, from 1.5 to 2.0×10^6 PBMC in 1 ml of culture medium (UltraCulture) were stimulated for 7 days in the added presence of natural Phl p5 allergens (in each case 10 μg/well) which had been purified by immunoaffinity chromatography. A total of from 8 to 10 of these cultures were set up. The isolation of Phl p5 by means of immunoaffinity chromatography has been described in detail (Lit. 2). At the end of the 7 days of culture, IL-2 (from 10 to 20 IU/well) was added to the cell cultures for a further 5 to 7 days. All the individual cultures were then pooled and the T cell blasts were enriched by means of density gradient centrifugation; the TCL which were obtained were then tested in a specific lymphocyte proliferation test (see Lit. 1 as well). For this, 2×10^4/ml TCL blasts were in each case cultured with 5×10^4/ml irradiated autologous APCs in triplicate samples in 96-well microculture plates. 10-20 μg of Phl p5 allergen were added as the specific antigen stimulus. After 56 hours of incubation, ^3H-labelled thymidine (1 μCi/well) was pipetted into the microcultures. After a further 16 hours, the radioactivity which had been incorporated into the proliferating T cell blasts was measured in a beta counter (Matrix 96). The results were calculated, as the arithmetic mean of the multiple samples, in counts per minute (cpm). The criterion for the quality of the TCL was the stimulation index, which was obtained by relating the cpm values with Phl p5 addition to those without Phl p5 addition.
The oligoclonal T cell lines (TCLs) from 8 patients who were allergic to grass pollen (see Ex. 1) were established by repeated activation with natural Ph1 p 5b (a+b) or recombinant rPh1 p 5b or 5a+5b.
The proliferative reaction of these TCLs was tested using the rPh1 p 5b mutants (FIG. 10).

[2] = system: IgE antibodies of allergic patients; experiment: EAST inhibition test (IgE reactivity / allergenicity); assay type: binding, human; conditions: for IC50: read-out: Inhibition value 50% (concentration of the inhibitor at 50% inhibition); for Allergenic potency (Prel) 25%: relative to native Phl p 5b at 25% inhibition; for Allergenic potency (Prel) 50%: relative to native Phl p 5b at 50% inhibition
Procedure: The effects of the induced mutations on the allergenicity, i.e. the ability to bind to the IgE antibodies of allergic patients, of the modified recombinant allergens is determined qualitatively and quantitatively by means of the EAST inhibition test. […] The extent of the immunochemical relatedness (cross reactivity) can also be quantified. This EAST inhibition test only takes the reaction with IgE antibodies into account.
The binding of the allergens by the IgE antibodies is the basic prerequisite for the allergen-specific activation of the effector cells (mast cells, basophils, inter alia) in type I allergy. The allergen-specific inhibition of the enzyme/allergen sorbent test (EAST) is the best means for qualitatively and quantitatively recording the binding of the allergens to IgE anti-bodies. The EAST inhibition test is carried out as follows. Microtitre plates are coated with allergen (natural or recombinant Ph1 p 5 or Ph1 p 5b) (1 μg/ml). After the unbound allergen molecules have been removed by washing, non-specific plastic binding sites are blocked with bovine serum albumin (0.5%). […] from allergic patients, as a representative pool of 10-30 donors or as an individual serum, is incubated, in a suitable dilution, with the allergen-coated microtritre plates. The bound allergen-specific IgE antibodies are quantified using enzyme-coupled anti-IgE antibodies (e.g. alk. phosphatase-a-IgE antibodies). This binding is inhibited by soluble allergen or the substance to be tested (allergen mutants) in dependence on the concentration. The inhibition curve obtained with the purified natural allergen Ph1 p 5b is used as the reference.

[3] = system: Phl p 5b-reactive T cell clones (TCCs) from allergic patients; experiment: Proliferative reaction of Phl p 5b-reactive T cell clones ([3H]-thymidine incorporation); assay type: cell-based, human; conditions: final concentration 0.3 μM
Procedure: as §1
After a TCL had been cloned (see below), the specificity of the isolated TCCs were determined as has just been described. Stimulation indices of at least 5 were rated as being positive for the TCCs. The determination of T cell epitopes for defining the T cell-reactive regions on group 5 allergens was also carried out using specific proliferation tests, with 1-2 μg of synthesized dodecapeptide/ml being used for this purpose in each case (see below).
The reactivity of the recombinant Ph1 p 5b mutants was tested on established T cell clones (TCCs) of known specificity. The TCCs derive from patients who are allergic to grass pollen (see Ex. 1) and are directed against the T cell-reactive regions A (FIG. 7), B (FIG. 8) and C (FIG. 9). The T cell reactivity was measured by stimulating the clones to proliferate.

[4] = allergic patient serum pool Bor 18/100
[5] = allergic patient serum pool We 6/97
[6] = individual allergic patient serum II/3
[7] = individual allergic patient serum II/17

B1: DM1: deletion mutant of rPhl p 5b (ΔK50-P132, D49→L), SEQ ID NO 91 (protein)
chain: ADAGYAPATPAAAGAAAGKATTEEQKLIEDINVGFKAAVAAAASVPAALAGELQIIDKIDAAFKVAATAAATAPADDKFTVFEAAFNKAIKESTGGAYDTYKCIPSLEAAVKQAYAATVAAAPQVKYAVFEAALTKAITAMSEVQKVSQPATGAATVAAGAATTAAGAASGAATVAAGGYKV
[1]; primary stimulator n Phl p 5
  Incorporation of [3H]-thymidine into TCL 2 Eic (stimulation index class): + (1-2 (+))
  Incorporation of [3H]-thymidine into TCL 3 Fre (stimulation index class): + (1-2 (+))
  Incorporation of [3H]-thymidine into TCL 4 Mer (stimulation index class): + (1-2 (+))
[1]; primary stimulator r Phl p 5
  Incorporation of [3H]-thymidine into TCL 5 17.4 (stimulation index class): + (1-2 (+))
[1]; primary stimulator r Phl p 5a, r Phl p 5b
  Incorporation of [3H]-thymidine into TCL 6 Mah (stimulation index class): ++ (5-10 (++))
[1]; primary stimulator r Phl p 5b
  Incorporation of [3H]-thymidine into TCL 7 19.2 (stimulation index class): +++ (>10 (+++))
  Incorporation of [3H]-thymidine into TCL 8 20.1 (stimulation index class): +++ (>10 (+++))
[2]; all serum pools and individual sera, Prel values
  Allergenicity / IgE reactivity, overall assessment (in words): marked reduction in allergenicity; also recorded: greatly reduced, it is still detectable
[2]; [4]
  Inhibition value 25% (concentration of the inhibitor at 25% inhibition): 8.6e-09 mol/L
  IC50: 28 nM
[2]; [5]
  Inhibition value 25% (concentration of the inhibitor at 25% inhibition): 2.3e-08 mol/L
  IC50: 17000 nM
[2]; [6]
  Inhibition value 25% (concentration of the inhibitor at 25% inhibition): 1.2e-08 mol/L
  IC50: 17 nM
[2]; individual allergic patient serum II/12
  Inhibition value 25% (concentration of the inhibitor at 25% inhibition): 1.5e-05 mol/L
[2]; [7]
  Inhibition value 25% (concentration of the inhibitor at 25% inhibition): 6.5e-09 mol/L
  IC50: 2 nM
[2]; individual serum II/3
  Allergenic potency (Prel) 25%: 0.0420
  Allergenic potency (Prel) 50%: 0.0035
[2]; individual serum II/12
  Allergenic potency (Prel) 25%: 3.4 × 10^−5
  Allergenic potency (Prel) 50%: 1.0 × 10^−10
[2]; individual serum II/17
  Allergenic potency (Prel) 25%: 0.033
  Allergenic potency (Prel) 50%: 0.0010
[2]; serum pool Bor 18/100
  Allergenic potency (Prel) 25%: 0.039
  Allergenic potency (Prel) 50%: 0.0015
[2]; serum pool We 6/97
  Allergenic potency (Prel) 25%: 0.022
  Allergenic potency (Prel) 50%: 0.0004
[2]; serum pool Bor 18/100 (20 donors), FIG. 1
  EAST inhibition curve / inhibitory effect (in words): markedly decreased inhibitory effect
[2]; serum pool We 6/97 and individual sera II3, II12, II17, FIGS. 2-5
  Allergenicity from EAST inhibition curves (in words): greatly reduced allergenicity
[3]; T cell-reactive region A
  Incorporation of [3H]-thymidine into TCC CB 2 (stimulation index class): +++ (>10 (+++))
  Incorporation of [3H]-thymidine into TCC CB 14 (stimulation index class): +++ (>10 (+++))
  Incorporation of [3H]-thymidine into TCC JR 13 (stimulation index class): +++ (>10 (+++))
  Incorporation of [3H]-thymidine into TCC JR 15 (stimulation index class): +++ (>10 (+++))
[3]; T cell-reactive region B
  Incorporation of [3H]-thymidine into TCC DW8 (stimulation index class): + (1-2 (+))
  Incorporation of [3H]-thymidine into TCC UZH2 (stimulation index class): +++ (>10 (+++))
[3]; T cell-reactive region C
  Incorporation of [3H]-thymidine, stimulation index SI, 1st exp.: 8.6
  Incorporation of [3H]-thymidine, stimulation index SI, 2nd exp.: 6.2
  Incorporation of [3H]-thymidine, stimulation index SI, 3rd exp.: 4.4
  Incorporation of [3H]-thymidine, stimulation index class (last column, no head): ++ (5-10 (++))
